This is an account of results in the supplement of paper PMC10724198.

± gives the standard deviation of the averaged measurements.

Series [1] has as its system Saccharomyces cerevisiae. Kind of series: protein stability index of tFT-peptide fusion (C-terminal peptide) (PSI (0-1 scale)); higher = more stable (slower turnover). On the procedure:
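MPS profiling in S. cerevisiae of the tFT-X12 degron library: putative degron peptides plus stable controls, 12 aa, fused to the C-terminus of a sfGFP-mCherry timer. Cells are FACS-sorted into 8 mCherry/sfGFP bins and deep-sequenced. PSI runs from 0 (unstable) to 1 (stable). Backgrounds are wild type, das1Δ and doa10Δ at 30 °C, and wild type, das1Δ, cdc34-1 and cdc53-1 at 37 °C; 2-3 technical replicates each.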

Series [2] deals with Saccharomyces cerevisiae. The series is described as above. The following applies: genetic background: wild type; temperature: 30 C.
Setting [3] is: genetic background: cdc34-1, temperature: 37 C.
Setting [4] is: genetic background: cdc53-1, temperature: 37 C.
[5] abbreviates: genetic background: das1 deletion, temperature: 30 C.
Setting [6] is: genetic background: das1 deletion, temperature: 37 C.
The mark [7] stands for this setting: genetic background: doa10 deletion, temperature: 30 C.
[8] abbreviates: genetic background: wild type, temperature: 30 C.
[9] abbreviates: genetic background: wild type, temperature: 37 C.
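Further: PSI is a weighted mean of sequencing reads over stability bins, variants kept only with over 10 reads, mCherry proximal and sfGFP distal, peptide attached via GGGS linker.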

Regarding VVRLRVWRLLKV, the protein stability index came to 0.267 ± 0.022 in series [1] (setting [3]); 0.33 ± 0.048 in series [1] (setting [4]); 0.253 ± 0.03 in series [1] (setting [5]); 0.42491 ± 4.8e-05 in series [1] (setting [6]); 0.101 ± 0.034 in series [1] (setting [7]); 0.161 ± 0.026 in series [1] (setting [8]). Also, the results for the protein stability index in series [1] (setting [9]) and in series [2] were 0.185 ± 0.016 and 0.225 ± 0.023, respectively.
With VVRSIVVYTCVF, the protein stability index in series [1] (setting [3]) was determined as 0.3284 ± 0.0017; in series [1] (setting [4]), 0.365 ± 0.041; in series [1] (setting [5]), 0.262 ± 0.026; in series [1] (setting [6]) it was 0.4241 ± 0.0025; in series [1] (setting [7]) it was 0.219 ± 0.0039; in series [1] (setting [8]) it was 0.253 ± 0.02. In addition, the values for the protein stability index in series [1] (setting [9]) and in series [2] were 0.405 ± 0.0074 and 0.352 ± 0.021, respectively.
Take VVRVIWCQFSCF: the protein stability index in series [1] (setting [3]) was determined as 0.494 ± 0.036; in series [1] (setting [4]), 0.545 ± 0.016; in series [1] (setting [5]), 0.414 ± 0.026; in series [1] (setting [6]), 0.595 ± 0.017; in series [1] (setting [7]), 0.208 ± 0.0071; in series [1] (setting [8]), 0.234 ± 0.022. In addition, the protein stability index was found to be 0.434 ± 0.027 in series [1] (setting [9]) and 0.334 ± 0.0057 in series [2].
VVTLHISLFYPG: the protein stability index in series [1] (setting [3]) is 0.447 ± 0.033; in series [1] (setting [4]), 0.511 ± 0.018; in series [1] (setting [5]), 0.406 ± 0.031; in series [1] (setting [6]), 0.5 ± 0.0056; in series [1] (setting [7]) it was 0.418 ± 0.06; in series [1] (setting [8]), 0.415 ± 0.029. For the same sequence, the protein stability index in series [1] (setting [9]) was 0.461 ± 0.019; in series [2], 0.479 ± 0.023.
On to VVVRARVFFHIF, for which the protein stability index in series [1] (setting [3]) was 0.285 ± 0.012; in series [1] (setting [4]), 0.444 ± 0.015; in series [1] (setting [5]), 0.361 ± 0.022; in series [1] (setting [6]), 0.538 ± 0.006; in series [1] (setting [7]), 0.0651 ± 0.0018; in series [1] (setting [8]), 0.0583 ± 0.025. Further, the results for the protein stability index in series [1] (setting [9]) and in series [2] were 0.07 ± 0.014 and 0.0561 ± 0.048, respectively.
Consider VVWLFGVSWCWL, for which the protein stability index worked out at 0.429 ± 0.018 in series [1] (setting [3]); 0.5093 ± 0.0025 in series [1] (setting [4]); 0.355 ± 0.022 in series [1] (setting [5]); 0.525 ± 0.006 in series [1] (setting [6]); 0.313 ± 0.011 in series [1] (setting [7]); 0.34 ± 0.03 in series [1] (setting [8]). Further, the protein stability index in series [1] (setting [9]) amounted to 0.518 ± 0.015; in series [2], 0.419 ± 0.0056.
VWACWCGWVLLM: the protein stability index in series [1] (setting [3]) came to 0.319 ± 0.038; in series [1] (setting [4]) it was 0.388 ± 0.024; in series [1] (setting [5]) it was 0.314 ± 0.027; in series [1] (setting [6]), 0.4667 ± 0.0039; in series [1] (setting [7]), 0.153 ± 0.0066; in series [1] (setting [8]) it was 0.15 ± 0.019. In addition, the protein stability index in series [1] (setting [9]) was 0.195 ± 0.0032; in series [2], 0.235 ± 0.072.
For VWLFCLSRLYLL, the protein stability index in series [1] (setting [3]) was determined as 0.298 ± 0.039; in series [1] (setting [4]) it was 0.383 ± 0.007; in series [1] (setting [5]) it was 0.38 ± 0.03; in series [1] (setting [6]), 0.4939 ± 0.0043; in series [1] (setting [7]) it was 0.143 ± 0.015; in series [1] (setting [8]), 0.101 ± 0.023. In addition, the values for the protein stability index in series [1] (setting [9]) and in series [2] were 0.114 ± 0.011 and 0.206 ± 0.052, respectively.
Consider VYCQRFMLLFTP, for which the protein stability index in series [1] (setting [3]) was determined as 0.527 ± 0.059; in series [1] (setting [4]), 0.535 ± 0.019; in series [1] (setting [5]) it was 0.459 ± 0.03; in series [1] (setting [6]) it was 0.581 ± 0.021; in series [1] (setting [7]), 0.553 ± 0.011; in series [1] (setting [8]), 0.433 ± 0.0094. The values for the protein stability index in series [1] (setting [9]) and in series [2] were 0.55 ± 0.0071 and 0.4872 ± 0.0007, respectively.
VYGSLPVVVCRI: the protein stability index in series [1] (setting [3]) was found to be 0.534 ± 0.059; in series [1] (setting [4]) it was 0.538 ± 0.013; in series [1] (setting [5]) it was 0.409 ± 0.023; in series [1] (setting [6]), 0.56 ± 0.016; in series [1] (setting [7]), 0.4 ± 0.022; in series [1] (setting [8]) it was 0.413 ± 0.011. For the same sequence, the protein stability index in series [1] (setting [9]) amounted to 0.539 ± 0.011; in series [2], 0.525 ± 0.065.
In the case of VYIVLLLLFLRP, the protein stability index in series [1] (setting [3]) worked out at 0.356 ± 0.0046; in series [1] (setting [4]), 0.378 ± 0.013; in series [1] (setting [5]), 0.317 ± 0.031; in series [1] (setting [6]), 0.407 ± 0.021; in series [1] (setting [7]), 0.3194 ± 0.003; in series [1] (setting [8]), 0.319 ± 0.015. The protein stability index in series [1] (setting [9]) was determined as 0.3951 ± 0.0015; in series [2] it was 0.308 ± 0.031.
In the case of VYLVLRCGSVLV, the protein stability index in series [1] (setting [3]) stood at 0.565 ± 0.015; in series [1] (setting [4]), 0.56 ± 0.032; in series [1] (setting [5]), 0.406 ± 0.021; in series [1] (setting [6]) it was 0.597 ± 0.011; in series [1] (setting [7]), 0.379 ± 0.018; in series [1] (setting [8]), 0.399 ± 0.016. Moreover, the results for the protein stability index in series [1] (setting [9]) and in series [2] were 0.586 ± 0.02 and 0.443 ± 0.054, respectively.
Take VYVLVFNMENIS: the protein stability index in series [1] (setting [3]) stood at 0.5603 ± 0.0009; in series [1] (setting [4]), 0.588 ± 0.0096; in series [1] (setting [5]), 0.382 ± 0.03; in series [1] (setting [6]) it was 0.616 ± 0.011; in series [1] (setting [7]), 0.382 ± 0.0068; in series [1] (setting [8]), 0.401 ± 0.033. For the same sequence, the protein stability index is 0.585 ± 0.036 in series [1] (setting [9]) and 0.4891 ± 0.0047 in series [2].
Turning to VYVSRTRPFSLY, the protein stability index in series [1] (setting [3]) stood at 0.682 ± 0.052; in series [1] (setting [4]) it was 0.7141 ± 0.0054; in series [1] (setting [5]), 0.63 ± 0.011; in series [1] (setting [6]), 0.728 ± 0.022; in series [1] (setting [7]), 0.33 ± 0.0094; in series [1] (setting [8]), 0.3687 ± 0.0034. Also, the protein stability index in series [1] (setting [9]) is 0.573 ± 0.007; in series [2], 0.428 ± 0.031.
In the case of WACAWRGMVKVG, the protein stability index in series [1] (setting [3]) turned out to be 0.202 ± 0.021; in series [1] (setting [4]) it was 0.245 ± 0.0068; in series [1] (setting [5]) it was 0.232 ± 0.034; in series [1] (setting [6]), 0.38 ± 0.0041; in series [1] (setting [7]), 0.0812 ± 0.0095; in series [1] (setting [8]), 0.0897 ± 0.021. Further, the protein stability index is 0.0811 ± 0.0041 in series [1] (setting [9]) and 0.156 ± 0.018 in series [2].
As for WAIVVLVCFLRL, the protein stability index came to 0.283 ± 0.011 in series [1] (setting [3]); 0.299 ± 0.0052 in series [1] (setting [4]); 0.277 ± 0.022 in series [1] (setting [5]); 0.388 ± 0.017 in series [1] (setting [6]); 0.332 ± 0.024 in series [1] (setting [7]); 0.277 ± 0.019 in series [1] (setting [8]). In addition, the results for the protein stability index in series [1] (setting [9]) and in series [2] were 0.362 ± 0.011 and 0.343 ± 0.017, respectively.
On to WCCCVSGFVWWM, for which the protein stability index in series [1] (setting [3]) turned out to be 0.563 ± 0.012; in series [1] (setting [4]), 0.6296 ± 0.0022; in series [1] (setting [5]) it was 0.491 ± 0.03; in series [1] (setting [6]), 0.633 ± 0.021; in series [1] (setting [7]), 0.458 ± 0.011; in series [1] (setting [8]), 0.465 ± 0.015. Further, the figures for the protein stability index in series [1] (setting [9]) and in series [2] were 0.602 ± 0.017 and 0.526 ± 0.11, respectively.
